{"source": "paper doi:10.1101/2025.03.12.642377", "about": "(bioRxiv, 2025)", "target": "PACRG-mNeonGreen-6xHis (C. reinhardtii, UniProt B1B601 1-307)", "experiment": "pull-down"}
{"binder": "FAP20-mRuby3 (His-tag cleaved) (natural protein, C. reinhardtii, UniProt A8IU92 1-190, looked up) MFKNAFQSGFLSVLYSIGSKPLEIWDKQVSNGHIKRITDADIQSSVLEIMGQNVSTTYITCPADPNKTLGIKLPFLVLIIKNLNKYFSFEVQVLDDKNVRRRFRASNYQSTTRVKPFICTMPMRLDSGWNQIQFNLSDFTRRAYGTNYIETLRVQVHANCRIRRIYFSDRLYSEEELPAEFKLFLPIQKS", "values": [{"measurement": "binding result", "result": "binds"}]}
